According to article doi:10.1101/2024.11.07.622398:

Assays:
[1] = biological target: bovine UBA7 (bovine); experiment: SEC-MALS
[2] = biological target: His-GST-tagged bovine UBA7(C597A) (bovine); experiment: BLI
[3] = biological target: bovine UBA7 (bovine)
[4] = biological target: His-GST-tagged bovine UBA7(eCCL) (bovine); experiment: BLI
[5] = biological target: His-GST-tagged UBA7(U1) chimera (bovine | human) (UniProt P22314); experiment: BLI
Chain of His-GST-tagged UBA7(U1) chimera (bovine | human) (P22314 whole entry, change not shown): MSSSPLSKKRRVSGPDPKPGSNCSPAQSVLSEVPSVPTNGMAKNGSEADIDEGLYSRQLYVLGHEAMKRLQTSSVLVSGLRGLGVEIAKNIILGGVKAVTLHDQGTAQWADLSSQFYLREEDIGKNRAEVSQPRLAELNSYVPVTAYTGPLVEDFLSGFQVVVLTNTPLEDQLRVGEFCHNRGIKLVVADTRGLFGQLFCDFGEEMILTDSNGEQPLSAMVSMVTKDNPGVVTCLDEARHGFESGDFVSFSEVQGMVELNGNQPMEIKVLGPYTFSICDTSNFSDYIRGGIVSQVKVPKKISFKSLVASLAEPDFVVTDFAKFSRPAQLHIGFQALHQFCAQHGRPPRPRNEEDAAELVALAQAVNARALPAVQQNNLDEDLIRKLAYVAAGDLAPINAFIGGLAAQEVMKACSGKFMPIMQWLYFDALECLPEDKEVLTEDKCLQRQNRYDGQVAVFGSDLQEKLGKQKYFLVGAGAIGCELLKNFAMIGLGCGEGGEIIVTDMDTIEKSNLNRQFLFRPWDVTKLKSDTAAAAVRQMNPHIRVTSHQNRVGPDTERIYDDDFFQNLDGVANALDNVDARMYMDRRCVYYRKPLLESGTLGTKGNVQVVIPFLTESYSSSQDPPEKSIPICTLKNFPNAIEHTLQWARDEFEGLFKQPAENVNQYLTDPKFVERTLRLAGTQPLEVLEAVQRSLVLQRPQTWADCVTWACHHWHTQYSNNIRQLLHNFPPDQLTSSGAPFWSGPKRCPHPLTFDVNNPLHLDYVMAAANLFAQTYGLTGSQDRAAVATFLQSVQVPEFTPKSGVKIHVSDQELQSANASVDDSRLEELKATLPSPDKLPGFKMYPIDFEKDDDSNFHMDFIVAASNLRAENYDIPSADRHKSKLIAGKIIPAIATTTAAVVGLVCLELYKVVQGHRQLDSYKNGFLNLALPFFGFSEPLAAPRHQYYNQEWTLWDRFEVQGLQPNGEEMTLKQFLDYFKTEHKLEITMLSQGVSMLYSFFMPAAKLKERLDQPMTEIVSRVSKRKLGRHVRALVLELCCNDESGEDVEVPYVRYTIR

Row | stoichiometry N [1] | Kd [2] [µM] | KM of disulfide complex formation (UBA7 titrated with UBE2L6, SDS-PAGE kinetics) [3] [µM] | Kd [4] [µM] | Kd [5] [µM] | Substance
1 | 1 | 1.2 | 1.3 |  |  | bovine UBE2L6 (from UniProt A5PJC4 1-153) (enzyme)
2 |  |  |  | 4 | 48 | bovine UBE2L6(C86A) (from UniProt A5PJC4 1-153) (enzyme)
